# Measured values: patent US20210292393A1 (published 2021)
# Numbering of substitutions follows the chain as printed.
# B1: antibody 516 (antibody, V domains shown)
# VH: QVELQQWGAGLLKPSETLSLTCAVYGGSFSGYYWSWIRQPPGKGLEWIGEINHSGSTNYNPSLKSRVTISIDTSKNQFSLKLSSVTAADTAVYYCARGTTVTTFFAPHWYFDLWGRGTLVTVSS
# VL: QSALTQPASVSGSPGQSITISCTGTSSDVGGYNYVSWYQQHPGKAPKLMIYDVSNRPSGVSNRFSGSKSGNTASLTISGLQAEDEADYYCSSYTSSSTPYVFGTGTKVTVL
# B2: antibody 541 (antibody, V domains shown)
# VH: QVQLVQSGAEVKKPGASVKVSCKASGYTFTSYYVHWVRQAPGQSLEWMGVISPSTGSTTYAQNFQGRVTMTRDTSTTTVYMELSSLRSEDTAVYYCARDDYYDSTRYFDLWGRGTLVTVSS
# VL: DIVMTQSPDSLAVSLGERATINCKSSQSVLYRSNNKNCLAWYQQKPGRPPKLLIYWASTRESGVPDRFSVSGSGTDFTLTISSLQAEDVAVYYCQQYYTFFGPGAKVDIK
# B3: antibody 546 (antibody, V domains shown)
# VH: QVQLVESGGGVVQPGRSLRLSCAASGFTFSSYGMHWVRQAPGKGLEWVAVIWYDGSNKYYADSVKGRFTISRDNSKNTLYLQMNSLRAEDTAVYYCARNCGGDCVAGDGFDYWGQGTLVTVSS
# VL: DIQMTQSPSSLSASVGDRVTITCRASQSISSYLNWYQQKPGKAPNLLIYAASSLQSGVPSRFSGSGSGTDFTLTISSLQPEDFATYYCQQSYSALTWTFGQGTKVEIK
# B4: antibody 537 (antibody, V domains shown)
# VH: QVQLQQWGAGLLKPSETLSLTCAVYGGSFSGYYWSWIRQPPGKGLEWIGEINHSGSTNYNPSLKSRVTISVDTSKNQFSLKLSSVTAADTAVYYCARGLYYDMGGGFDYWGQGTLVTVSS
# VL: not shown
# B5: antibody 533 (antibody, V domains shown)
# VH: GVQLVESGGVVVQPGGSLRLSCAASGFSFDDYTMHWVRQAPGKGLEWVSLVSWDGGTTYYTDSVKGRFTISRDNSKNSLYLQMNSLRTEDTALYFCAKDSGRIVPAATFDYWGQGTLVTVSS
# VL: DIQMTQSSSSLSASVGDRVTITCRASQDISNYLAWFQQKPGKAPKSLIYAASSLQSGVPSKFSGSGSGTDFTLTISSLQPEDFATYYCQQYYTYPLTFGGGTKVEIK
# B6: antibody 527 (antibody, V domains shown)
# VH: QLQLQESGPGLVKPSETLSLTCTVSGGSISSSSYYWGWIRQPPGKGLEWIGSIYYSGSTYYNPSLKSRVTISVDTSKNQFSLKLSSVTAADTAMYYCASHVVVIASSYWCFDLWGRGTLVTVSS
# VL: QSALTQPASVSGSPGQSITISCTGTSSDVGGYNYVSWYQQHPGKAPKLMIYDVSNRPSGVSNRFSGSKSGNTASLTISGLQAEDEADYYCSSYTSISTWVFGGGTKLTVL
# B7: antibody 543 (antibody, V domains shown)
# VH: EVQLVESGGGLVQPGRSLRLSCAASGFTFHDYAMHWVRQAPGKGLEWVSGISWNSGSIGYADSVKGRFTISRDNAKNSLYLQMNSLRAEDTALYYCAKDTFGSSSWYRGDSYYYYGMDVWGQGTTVTVSS
# VL: QSALTQPASVSGSPGQSITISCTGTSSDVGGYNYVSWYQQHPGKAPKLMIYEVSNRPSGVSNRFSGSKSGNTASLTISGLQAEDEADYYCSSYTSSSTQRYVVFGGGTKLTVL
# B8: antibody 536 (antibody, V domains shown)
# VH: QVQLVESGGGVVQPGRSLRLSCAASGFTFSSYVMHWVRQAPGKGLEWVALISYDGSNKYYADSVKGRFTISRDNSKNTLYLQMNSLRAEDTAVYYCARGGHIRVGRYFDWLISYFDYWGQGTLVTVSS
# VL: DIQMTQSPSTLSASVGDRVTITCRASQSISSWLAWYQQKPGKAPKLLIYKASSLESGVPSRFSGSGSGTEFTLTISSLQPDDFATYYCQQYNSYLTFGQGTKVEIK
# B9: antibody 523 (antibody, V domains shown)
# VH: EVQLVESGGVSVQPGGSLRLSCAASGFSFNTYDMHWVRQGTGKGLEWVSGIGTAGDTYYSDSVKGRCTISRDNAKNSLHLLVKSVRAADTAVYYCARGVGGIIDYWGQGTLVTVSS
# VL: NFVLSQPHSVSESPGKTVTISCTGNSGSIATKYVQWFQQRPGSAPTTVIYEDNQRPSGVPDRFSGSSDSSSNSASLTISGLKTEDEAHYYCQSYHNRRWVFGGGTKLTVL
# B10: antibody 522 (antibody, V domains shown)
# VH: EVQLVESGGGLVQPGGSLRLSCAASGFNFSSYSMNWVRQAPGKGLEWVSYISSSSSTIYYADSVKGRFTISRDNAKNSLYLQMNSLRDEDTAVYYCARGPEWDIVVVQAENWFDPWGQGTLVTVSS
# VL: SYELTQPPSVSVSPGQTARITCSGDALPKQYVYWYQQKPGQAPVLVIYKDSERPSGIPERFSGSSSGTTVTLTISGVQAEDEADYYCQSADSSGTYRGVFGGGTKLTVL
# B11: antibody 300 (antibody, V domains shown)
# VH: QVQLVESGGGVVQPGRSLTLSCAASGFTFSSYAMHWVRQAPGKGLEWVALISYDGNNKYYADSVKGRFTFSRDNSKNTLYLQMNSLRAEDTAVYYCARTNSGSYRTAFDYWGQGTLVTVSS
# VL: DIQMTQSPSTLSASVGDRVTITCRASQSISIWLAWYQQKPGKAPKLLIYKASSLESGVPSRFSGSGSGTEFTLTISSLQPDDFATYYCQQYNSLWTFGQGTKVEIK
# B12: antibody 295 (antibody, V domains shown)
# VH: QVQLQESGPGLVKPSQTLSLTCTVSGGSISSSDYYWSWIRQPPGKGLEWIGYIYYSGSTYYNPSLKSRVTISVDTSKNQFSLKLSSVTAADTAVYYCARVVGYCSSTSCYVDYWGQGTLVTVSS
# VL: EIVLTQSPATLSLSPGERVTLSCRASQSVSSYLAWYQQKPGQAPRLLIYDASNRATGIPARFSGSGSGTDFTLTISSLEPEDFAVYYCQQRSNWPPGLTFGGGTKVEIK
# B13: antibody 288 (antibody, V domains shown)
# VH: EVQLVESGGGLVQPGGSLRLSCAASGFTFSSYDMHWVRQATGKGLEWVSAIGTAGDTYYPGSVKGRFTISRENAKNSLYLQMNSLRAGDTAVYYCARGANRDYDILTGYYSYYYYGMDVWGQGTTVTVSS
# VL: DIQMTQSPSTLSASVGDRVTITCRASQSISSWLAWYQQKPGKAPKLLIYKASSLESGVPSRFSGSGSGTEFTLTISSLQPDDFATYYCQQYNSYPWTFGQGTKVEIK
# B14: antibody 276 (antibody, V domains shown)
# VH: QVQLQESGPGLVKPSQTLSLTCTVSGDSISSGGYYWSWIRQHPGKGLEWIGYIYYSGSAYYNPSLKSRVTISLDTSKNQFSLKLSSVTAADTAVYYCARDSVAGFSIFDYWGQGTLVTVSS
# VL: SSELTQDPAVSVALGQTVRITCQGDSLRSYYASWYQQKPGQAPVRVIYGKNNRPSGIPDRFSGSSSGNTASLTITGAQAEDEADYYCNSWDSSGNHVVFGGGTKLTVL
# B15: antibody 294 (antibody, V domains shown)
# VH: EVQLVESGGGLVQPGGSLRLSCAASGFTVSSNYMNWVRQAPGKGLEWVSVIYSGGSTYYADSVKGRFTISRDNSKNTLYLQMNSLRAEDTAVYYCARDLGPSGMDVWGQGTTVTVSS
# VL: DIQMTQSPSSVSASVGDRVTITCRASQGISSWLAWYQQKPGKAPKLLIYAASSLQSGVPSRFSGSGSGTDFTLTISSLQPEDFATYYCQQANSFPLFGGGTKVEIK
# B16: antibody 281 (antibody, V domains shown)
# VH: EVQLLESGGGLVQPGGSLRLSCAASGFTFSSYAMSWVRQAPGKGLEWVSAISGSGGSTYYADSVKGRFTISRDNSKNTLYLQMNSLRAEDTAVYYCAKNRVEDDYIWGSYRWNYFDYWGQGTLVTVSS
# VL: QSALTQPASVSGSPGQSITISCTGTSSDVGSYNLVSWYQQHPGKAPKLMIYEVSKRPSGVSNRFSGSKSGNTASLTISGLQAEDEADYYCCSYAGSSTHVVFGGGTKLTVL
# B17: antibody 263 (antibody, V domains shown)
# VH: EVQLVQSGAEVKKPGATVKISCKVSGYTFTDYYMHWVQQAPGKGLEWMGLVDPEDGETIYAEKFQGRVTITADTSTDTAYMELSSLRSDDTAVYYCTTDLAFTIFGGRRGFDPWGQGTLVTVSS
# VL: DIQLTQSPSFLSASVGDRVTITCRASQGISSYLAWYQQKPGKAPKLLIYAASTLQSGVPSRFSGSGSGTEFTLTISSLQPEDFATYYCQQLNSYDFGQGTRLEIK
# B18: antibody 273 (antibody, V domains shown)
# VH: QVQLVQSGAEVKKPGASVKVSCKVSGYTLTELSMHWVRQAPGKGLEWMGGFDPEDGETIYAQKFQGRVTMTEDTSTDTAYMELSSLRSEDTAVYYCATAPGYYDSSAPQPINWFDPWGQGTLVTVSS
# VL: B6 VL with G31S, Y34L, D52E, N55K, S91C, T94A, S95G, I96S, W99L
# B19: antibody 265 (antibody, V domains shown)
# VH: EVQLVQSGAEVKKPGATVKVSCKFSGDTFSHYYIHWVQQAPGKGLEWMGLVDPQDGESEYAQKFQGKVTITADTSIDTSYLEVTSLRFDDTAFYFCATRGMSGAFDRWGQGTLVTVSS
# VL: DIVMTQSPDSLAVSLGERATINCKSSQSILSTSNNKNYLAWYQQKPGQPPKLLIYWASTRESGVPDRFSGGGSGTDFTLTISSLQAEDVAVYYCQQYYRTAYTTPIYTFGQGTKLEIK
# B20: antibody 264 (antibody, V domains shown)
# VH: QVHLVESGGGVVQPGRSLRLSCAASGFTLTSYAMHWVRQAPGKGLEWVALISYDGSVKKYAESVKGRITVSGDNSRNTLHLQINTLRADDTAVYYCVRGGVSGPNSFDLWGQGTMVTVSS
# VL: DVVMTQSPLSLPVTLGQPASISCRSSQSLEYSDGNTYVNWFQQRPGQSPRRLIYQVSNRASGVPDRFSGSGSGTDFTLQISRVEAEDVGIYYCMQGTHWPVTFGQGTKVEIK
# B21: antibody 303 (antibody, V domains shown)
# VH: QVQLVESGGGVVQPGRSLRLSCAASGFNLSSYAMHWVRQASGKGLEWVSLISYDGSIKYYADSVKGRFTVSGDNSKNMLFLQMNSLRADDSALYYCVRGGVSGPNAFDIWGQGTTVTVSS
# VL: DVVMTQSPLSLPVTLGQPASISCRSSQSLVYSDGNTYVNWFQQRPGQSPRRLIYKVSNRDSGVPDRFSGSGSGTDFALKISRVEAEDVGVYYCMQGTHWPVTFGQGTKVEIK
# B22: antibody 316 (antibody, V domains shown)
# VH: B20 VH with S31A, G44R, E62D, N74T, R76T, I83M, T85S
# VL: B20 VL with I21M, Q42H, Q55K, N58Y, A60D
# B23: antibody 266 (antibody, V domains shown)
# VH: B21 VH with S31N, A40P, A61T, M78T, A88P, A106S, I109M
# VL: B20 VL with E30V, N58I, T77A, Q79K, I90V
# Molecular target: SARS-CoV-2 full length spike protein, wild type, expressed on the surface of CHO cells (SARS-CoV-2, UniProt P0DTC2 14-1273)
row,Binder,median fluorescence fold over isotype control
1,B1,3.31 fold over isotype
2,B2,1.1 fold over isotype
3,B3,19.3 fold over isotype
4,B4,4.42 fold over isotype
5,B5,4.31 fold over isotype
6,B6,10.4 fold over isotype
7,B7,13.3 fold over isotype
8,B8,2.36 fold over isotype
9,B9,5.18 fold over isotype
10,B10,9.18 fold over isotype

# Molecular target: SARS-CoV-2 full length spike protein (wild type) (SARS-CoV-2, UniProt P0DTC2 14-1273)
row,Binder,"median fluorescence intensity, fold over isotype control"
1,B11,9.71 fold over isotype
2,B12,9.67 fold over isotype
3,B13,24.3 fold over isotype
4,B14,9.24 fold over isotype
5,B15,22.2 fold over isotype
6,B16,24.3 fold over isotype
7,B17,22.5 fold over isotype
8,B18,16.9 fold over isotype
9,B19,21.4 fold over isotype
10,B20,10.3 fold over isotype
11,B21,9.59 fold over isotype
12,B22,10.7 fold over isotype
13,B23,10.3 fold over isotype
